Data on 167 variants can be found in the RNAGym collection of RNA variant scans (doi:10.7554/elife.80360).

The chains are these.
B1: HDV Ribozyme (parent)
chain: GGCCGGCAUGGUCCCAGCCUCCUCGCUGGCGCCGGCUGGGCAACAUUCCGAGGGGACCGUCCCCUCGGUAAUGGCGAAUGGGACCCA

This data set covers variants of B1. In words: self-cleavage, relative activity (ratio to wild type); higher = more cleavage; co-transcriptional.
A43C G59C: the self-cleavage stood at 0.322.
The figure for U65G A71C is 0.755; for U27A A56C it is 0.914.
The figure for G6U C22G is 0.0489; for U20A A87U it is 0.0282.
The figure for G34C U60C is 0.244.
As for C15A G81C, the self-cleavage came to 0.208.
The figure for C15A G81U is 0.232; for G34C C86G it is 0.19; for U9A C44A it is 0.831.
The figure for G50U U72A is 0.554; for C58G A83G it is 0.633; for G38U C62U it is 0.337.
As to A43C C63G, the self-cleavage turned out to be 0.185.
Under G39U U65G stands 0.583.
Under A8C G59A stands 1.07; under U12G U60C, 0.895; under C32A U37G, 0.166.
Under A42U G73C stands 0.267; under G80U C86A, 0.239.
For C19G G74C, the self-cleavage worked out at 0.0665.
For the variant G11U C15G, the self-cleavage came to 0.166.
The figure for U12G C61U is 0.831.
Under A16G C33A stands 0.268; under C48G A70C, 0.6; under C30U G50A, 0.728.
The figure for A8U C49U is 0.739; for G35U A56U it is 0.62; for C21U G31C it is 0.0723.
Take G5A G55C: the self-cleavage was found to be 0.104.
On to C64A U69C, for which the self-cleavage came to 0.782.
The figure for C19U C26A is 0.446; for C26A G82C it is 0.342; for A42U A78G it is 0.264.
Under C14U C62U stands 0.923.
Under C58A C66A stands 0.959; under U12A C61U, 0.469.
For C14G A70C, the self-cleavage came out at 0.185.
Under C64U C84A stands 0.801; under U37G G38C, 0.192.
Under C33G C66U stands 0.181; under C4G C44G, 0.0449.
Under G31U C41U stands 0.151; under G25A A71C, 0.185.
In the case of G11C U27A, the self-cleavage was 0.646.
The figure for G31A C85U is 0.404.
Under G11C G29A stands 0.
Consider C22U G29C, for which the self-cleavage was determined as 0.0405.
Turning to G31C C41A, the self-cleavage is 0.305.
As to G31C A42C, the self-cleavage turned out to be 0.128.
In the case of G11A C18G, the self-cleavage is 0.041.
The figure for C3U C22G is 0.0193.
Regarding C13G G53A, the self-cleavage was determined as 0.163.
Turning to U20A C21U, the self-cleavage worked out at 0.0898.
Under G35C G55A stands 0.342; under C4A G59C, 0.302; under C36A A43U, 0.198.
As to G2U C19G, the self-cleavage is 0.
Regarding C7A G34A, the self-cleavage was determined as 0.175.
The figure for G1A U47G is 0; for G25U G38C it is 0.0554.
The figure for C13U U79A is 0.256; for G67C A77U it is 0.707.
Consider G11C G31U, for which the self-cleavage came out at 0.0482.
Regarding C7G U9G, the self-cleavage was determined as 0.831.
In the case of C19U G34U, the self-cleavage turned out to be 0.0755.
Under C7U G55U stands 0.815.
Regarding C36A C48U, the self-cleavage turned out to be 0.116.
Consider G35C G76A, for which the self-cleavage came out at 0.514.
The figure for C44A G80U is 0.118; for G11C it is 0.314.
As for G50U G67A, the self-cleavage came out at 0.959.
Under U27G U37C stands 0.762; under C64G G74C, 0.244; under U37A G39C, 0.
Under G28C U47C stands 0.0665.
The figure for A8C G76U is 0.785.
In the case of U69C A71G, the self-cleavage was determined as 0.974.
Under C7A U23A stands 0.739; under G5C G50C, 0.151.
Under U9C C33U stands 0.895; under U20G A70C, 0.217; under C41U A56G, 0.7.
In the case of C13A C84A, the self-cleavage came out at 0.831.
Regarding A16G G55U, the self-cleavage was found to be 0.914.
G10A G81C: the self-cleavage stood at 0.22.
Under G67A A87G stands 0.936; under G6U A43U, 0.212; under G2A G54A, 0.194.
Regarding C14A C26A, the self-cleavage is 0.966.
Turning to G10U C75A, the self-cleavage came out at 0.0213.
Under C13G G28U stands 0; under C21U U60A, 0.237.
The figure for G29U A56G is 0.227.
The figure for A56C A78U is 0.499; for G17U U23A it is 0.397.
Turning to A8U U20A, the self-cleavage was found to be 0.166.
Consider U27C C44G, for which the self-cleavage worked out at 0.277.
The figure for G81A C86U is 0.546.
Under U65A A87G stands 0.877; under C3U C62A, 0.973.
In the case of A45C G55C, the self-cleavage stood at 0.48.
C22G A56U: the self-cleavage turned out to be 0.133.
With U20A G81U, the self-cleavage worked out at 0.0346.
For the variant C15A C48U, the self-cleavage is 0.54.
For A51C G81U, the self-cleavage is 0.38.
For the variant C22A G82A, the self-cleavage is 0.0767.
On to G1A G39C, for which the self-cleavage came out at 0.
G82U A83C: the self-cleavage worked out at 0.18.
As to C24A C64U, the self-cleavage was found to be 0.866.
U9G C48U: the self-cleavage worked out at 1.05.
The figure for A8U U23G is 0.415.
As for C36G A87U, the self-cleavage worked out at 0.153.
Under G6A C44U stands 0.457.
Under G76C A77C stands 0.104; under C30G G52U, 0.02; under C15A U20G, 0.19.
On to C44G C57U, for which the self-cleavage was determined as 0.745.
The figure for A45U C63U is 0.856; for G55U it is 1.01.
For the variant C26G G76C, the self-cleavage was determined as 0.884.
Under G54A A77G stands 0.614; under G54U C66G, 0.882; under C33U A51C, 1.3.
The figure for U9C G82U is 0.201; for G31A A43G it is 0.0386.
The figure for G1U G80U is 0.479.
As to G31A A87C, the self-cleavage was found to be 0.385.
For the variant A78C G81A, the self-cleavage came to 0.17.
Turning to G29U U72C, the self-cleavage is 0.0811.
The figure for C64G A70G is 0.712; for U12G U79C it is 0.243; for C33U G59A it is 0.897.
The figure for G1C C21A is 0; for C14G C15U it is 0.111; for G1C C19G it is 0.
Under G54C A77U stands 0.695; under G54U G76C, 0.73; under G17A G53C, 0.831.
As to G1A A43U, the self-cleavage worked out at 0.0437.
As to C15G C75G, the self-cleavage worked out at 0.192.
Under G25A G55U stands 0.128; under C15G G29U, 0; under U12A A56G, 0.196.
Under A16G C48U stands 1.42; under C21G A78G, 0.135.
Under C41G U79A stands 0.59.
With G40U G81A, the self-cleavage turned out to be 0.328.
The figure for U20A A77G is 0.0723.
Under C32U G67U stands 0.88; under C22A A51U, 0.332; under C7U G53C, 1.12.
Turning to A43C C62U, the self-cleavage amounted to 0.508.
As to A83C C86U, the self-cleavage turned out to be 0.376.
The figure for U37A G50U is 0.128; for G50C C85A it is 0.933; for C3U C13A it is 0.138.
As for U23C C24A, the self-cleavage is 0.287.
Under A43G A78U stands 0.178.
Under G52A C86U stands 0.816; under G5C A43G, 0; under C22G C58U, 0.172.
As to C62U G74U, the self-cleavage was 0.679.
The figure for C18G G34C is 0.104.
Under G28A G29U stands 0.111.
As to U23G G35A, the self-cleavage was 0.324.
Take C18G A56G: the self-cleavage worked out at 0.
